Results published in patent publication US20250230224A1.

B1: Hu6F13.4 IgG (antibody, V domains shown)
VH: QVQLVQSGAEVKKPGASVKVSCKASGYSFTSYWMHWVRQAPGQGLEWIGFINPINGGIIYNEKFRFRATLTVDTSISTAYMELSRLRSDDTAVYYCARAGYYGSSRHFDVWGQGTLLTVSS
VL: ETTLTQSPSSLSASVGDRVTITCRASQGIRNYLAWYQQKPGKAPKLLIYDASNLETGVPSRFSGSGSGTDFTFTISSLQPEDFATYYCLQTSSTPWTFGQGTKVDIKR
B2: 4C4.4 IgG (antibody, V domains shown)
VH: QVQLQESGPGLVKPSQTLSLTCTVSGASISNSPYFWNWFRQFPGKGLEWIGYIYWSGSTNYNPSLKSRLAMSVDTSKNQFSLKLTSATAADTAVYYCARDQGGGTVVKENWFDPWGQGTLVTVSS
VL: DIVMTQSPSSLSASVGDRLTMTCQASQDIGKHLNWYQQKAGKPPKLLIYGASNLKTGVPSRFSAGVSWTDFTFTISNVQPEDVATYYCQQSYSTPPTFGQGTKVEIKR
B3: 6F5.4 IgG (antibody, V domains shown)
VH: EVQLVPSGGNLVQPGGSLRLSCAATGPIDYHWMTWVRQAPGQGLEWVANINLDGTEKFYVDSVKGRFTVSRDNRKSSVFLQMNNLRVDDTAVYYCARLQWGERDGWLSPWGQGTLVTVSS
VL: DIVMTQSPPSLSASVGDRVRLTCRASQSIGRSLNWYQQKPGKAPKLLIYDASALHSGVPSRFSGSGSGTDFTLTISGLQPEDFATYYCQQTNDLPVTFGGGTKLEIKR
B4: Hu6F11 IgG (antibody, V domains shown)
VH: EVQLVESGGGLVKPGGSLRLSCAASGFTFSNYGMSWVRQAPGKGLEWVASISSGGSYIYYPDSVKGRFTISRDNAKNSLYLQMNSLRAEDTAVYYCARRKGYDSLYWYFDVWGQGTLVTVSS
VL: DVVMTQSPSSLSAFVGDRVTITCRASQGIRSYLAWFQQKPGKAPKLLIYAASTLQSGVPSRFSGSGSGTEFTLTVSGLQPEDFATYYCQQYNSYPLTFGGGTRLEIKR
B5: 8DC4.4 IgG (antibody, V domains shown)
VH: QVQLQESGPGLVKPSQTLSLTCTVSGGSISSDNYFWTWIRQSPGKGLEWLGHISYSGRSYTNLSLKRRLTISVDTSKNQFSLNLNSVTAADTAVYYCARERLPPGRGYDMDVWGQGTTVTVSS
VL: DIVMTQSPSSVSASVGDRVTITCRASRDISIYLNWYQQKPGKAPKLLIYAASNLETGVPSRFSGSGSGTDFTLTISSLQPEDVATYYCQQSYNTPLTFGGGTKLEIKR

Legend:
BoNT/F6 = experiment: KinExA, IgG
BoNT/F3 = experiment: KinExA, IgG
BoNT/F7 = experiment: KinExA, IgG
BoNT/F4 = experiment: KinExA, IgG
BoNT/F2 = experiment: KinExA, IgG
BoNT/F5 = experiment: KinExA, IgG
[1] = target: Mosaic botulinum neurotoxin BoNT/DC (Clostridium botulinum); experiment: KinExA flow fluorimetry, solution phase, IgG
[2] = target: Mosaic botulinum neurotoxin BoNT/CD (Clostridium botulinum); experiment: KinExA flow fluorimetry, solution phase, IgG

Binder | Kd (BoNT/F6) [nM] | Kd (BoNT/F3) [nM] | Kd (BoNT/F7) [nM] | Kd (BoNT/F4) [nM] | Kd (BoNT/F2) [nM] | Kd (BoNT/F5) [nM] | Kd [1] [nM] | Kd [2] [nM]
B1 | 0.172 | 0.297 | 0.206 | 0.405 | 0.216 | 0.0172 | – | –
B2 | – | – | – | – | – | – | 0.087 | 0.016
B3 | 0.0004 | 0.00519 | 0.00374 | 0.0258 | 0.00016 | 0.00588 | – | –
B4 | 0.0037 | 0.00803 | 0.00334 | 0.0137 | 0.0283 | 0.0218 | – | –
B5 | – | – | – | – | – | – | 0.146 | 0.117
